The results in this text go back to patent US20190024087.

By Kd is commonly meant a measure of binding affinity in units of concentration. Lower therefore signals tighter binding.

The target in one data set is T1, GDF11 (mature human) (Homo sapiens) (UniProt O95390).
T1 sequence: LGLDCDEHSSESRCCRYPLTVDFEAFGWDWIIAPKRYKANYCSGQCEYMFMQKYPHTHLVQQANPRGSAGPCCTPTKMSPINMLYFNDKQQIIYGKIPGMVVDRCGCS
Nature of the data set: filter. Conditions: NapdU at all P (n) positions; 0.1 uM Z-block.
For the sequence “CCCTGCGCCTTCGGACTTGCTTTAAGTTTAGCCGCTTGTTCACATCACAA [12060-4_3]”, the equilibrium dissociation constant (Kd) was 0.9 nM. In other words, the sub-nanomolar range. Still for that read-out and setting: the result for “CCCTGCGCCTTCGGACTTGCTTTAAGTTTAGCCGCTTGCTCACAACACAA [12060-300_3]” reads 0.99 nM. The same measure, in the same setting: the result for “CTGTGCTAAGACTGCGGACTTGATTTAGGTTTAGCCGCAAGAAGTCACAA [16139-37_3]” reads 1.21 nM; that for “CCCTGGTTGACAAGGTACTGGACTTGATTTACGTTTAGCCTCAAGCACAA [12058-386_3]”, 6.7 nM. In turn, “CTGTGAGTGTACCTCGCGCTTGATTTACGTTTAGGCGAGGCAGGCCACAA [16139-30_3]” had a Kd of 0.92 nM.

For the sequence “CTGTGCGTACTGACTTGATTTACGTTTTAGCGATGCATGCTTGAGCCACAA [16139-122_3]”, the Kd came to 2.23 nM.

The sequence “CCCTGCGCCTTCGGACTTGCTTTAAGTTTAGCCGCTCGCTCACATCACAA [12060-204_3]” gave an equilibrium dissociation constant (Kd) of 0.94 nM.

The sequence “CTGTGACCTTCACCCGTGACTTGGTTTACGTTTAGCGGGTAGGTCACAA [16139-178_3]” returned a Kd of 1.08 nM. Still for that read-out and setting: the result for “CCCTGCGCCTTCGGACTTGATTTAAGTTTAGCCGCTTGCTCACATCACAA [12060-28_38]” reads 1.1 nM; that for “CCCTGCGCCTTCGGACTTGCTTTAGGTTTAGCCGCTTGCTCACATCACAA [12060-28_40]”, 1.4 nM; that for “CTGTGGACTGAGTTGGATGGGACTTGATTTAAGTTTAGCCCGCAACACAA [16139-3_3]”, 1.58 nM. On the same count and under the same terms, the result for “CCCTGCGCCTTCGGACTTGCTTTAAGTTTAGCCGCTTGCTTACATCACAA [12060-116_3]” reads 1.14 nM. The same measure, in the same setting: the result for “CTGTGGTTAACGACGACTTGATTTACGTTTAGCGGCACCTTACACCACAA [16139-19_3]” reads 1.7 nM. “CCCTGTGCCTTCGGACTTGCTTTAAGTTTAGCCGCTTGCTCACATCACAA [12060-32_3]” came in with a dissociation constant Kd of 1.45 nM. The Kd values of the last two sequences are within 1.5-fold of each other.

For the sequence “CCCTGCGCCTTCGGACTTGGTTTAAGTTTAGCCGCTTGCTCACATCACAA [12060-28_39]”, the equilibrium dissociation constant (Kd) was 1.2 nM. Same read-out and setting: the result for “CCCTGCGCCTTCGGACTTGCTTTAAGTTTAGCCGCTTGCTCACGTCACAA [12060-130_3]” reads 0.61 nM; that for “CTGTGAACTTGATTTAAGTTTAGGCACATACACCACTCCGGACGA [16139-198_3]”, 0.62 nM.

As for “CCCTGCGCCTTCGGACTTGCTTTACGTTTAGCCGCTTGCTCACATCACAA [12060-238_3]”, the dissociation constant (Kd) turned out to be 3.4 nM. On the same count and under the same terms, the result for “CTGTGACTAATGTGACCGGAGACTTGCTTTACGTTTAGCGACCTGCACAA [16139-12_3]” reads 1.7 nM.

Staying with this data set, now noted: NapdU at all P (n) positions; 0.1 uM Z-block; Table 5 gives 4.17 nM, p194 1.74 nM with 1 uM Z-block.
With “CCCTGCGCCTTCGGACTTGCTTTAAGTTTAGCCGCTTGCTCACATCACAA [12060-28_3]”, the Kd is 1.7 nM.

The same data set, now with this note: NapdU at all P (n) positions; 0.1 uM Z-block; Table 5 gives 6.52 nM.
Regarding “CCCTGTGAGACTTGATTTACGTTTAGCTGCTAACATGGGGAACCACACAA [12060-16_3]”, the equilibrium dissociation constant (Kd) amounted to 6.5 nM.
